Source: PMC12109740, “Modulation of Kv Channel Gating by Light-Controlled Membrane Thickness” (Biomolecules, 2025)

Molecular target: the molecule itself
Test: SEC; Superdex 200 Increase 10/300 GL, 100 mM KCl, 25 mM Tris pH 8.0, in detergent (DM by the methods, DDM by the results); peak at 11 mL

B1: KvAP wild type (voltage-gated potassium channel from Aeropyrum pernix) (natural protein)
chain: GGRVRNIGDVMEHPLVELGVSYAALLSVIVVVVEYTMQLSGEYLVRLYLVDLILVIILWADYAYRAYKSGDPAGYVKKTLYEIPALVPAGLLALIEGHLAGLGLFRLVRLLRFLRILLIISRGSKFLSAIADAADKIRFYHLFGAVMLTVLYGAFAIYIVEYPDPNSSIKSVFDALWWAVVTATTVGYGDVVPATPIGKVIGIAVMLTGISALTLLIGTVSNMFQKILVGEPEPSCSPAKLAEMVSSMSEEEFEEFVRTLKNLRRLENSMK
notes: KvAP, voltage-gated potassium channel of Aeropyrum pernix, wild type; also called Kv channel from Aeropyrum pernix; source: E. coli C43 (DE3), pET21a-derived vector, solubilised in detergent, purified (Ni-NTA, SEC on Superdex 200 Increase)
B1 was tested, and the “stoichiometry N” value was 4.
